B1: Disintegrin and metalloproteinase domain-containing protein 22 (Homo sapiens), Q9P0K1-1 (parent)
chain: MQAAVAVSVPFLLLCVLGTCPPARCGQAGDASLMELEKRKENRFVERQSIVPLRLIYRSGGEDESRHDALDTRVRGDLGGPQLTHVDQASFQVDAFGTSFILDVVLNHDLLSSEYIERHIEHGGKTVEVKGGEHCYYQGHIRGNPDSFVALSTCHGLHGMFYDGNHTYLIEPEENDTTQEDFHFHSVYKSRLFEFSLDDLPSEFQQVNITPSKFILKPRPKRSKRQLRRYPRNVEEETKYIELMIVNDHLMFKKHRLSVVHTNTYAKSVVNMADLIYKDQLKTRIVLVAMETWATDNKFAISENPLITLREFMKYRRDFIKEKSDAVHLFSGSQFESSRSGAAYIGGICSLLKGGGVNEFGKTDLMAVTLAQSLAHNIGIISDKRKLASGECKCEDTWSGCIMGDTGYYLPKKFTQCNIEEYHDFLNSGGGACLFNKPSKLLDPPECGNGFIETGEECDCGTPAECVLEGAECCKKCTLTQDSQCSDGLCCKKCKFQPMGTVCREAVNDCDIRETCSGNSSQCAPNIHKMDGYSCDGVQGICFGGRCKTRDRQCKYIWGQKVTASDKYCYEKLNIEGTEKGNCGKDKDTWIQCNKRDVLCGYLLCTNIGNIPRLGELDGEITSTLVVQQGRTLNCSGGHVKLEEDVDLGYVEDGTPCGPQMMCLEHRCLPVASFNFSTCLSSKEGTICSGNGVCSNELKCVCNRHWIGSDCNTYFPHNDDAKTGITLSGNGVAGTNIIIGIIAGTILVLALILGITAWGYKNYREQRQLPQGDYVKKPGDGDSFYSDIPPGVSTNSASSSKKRSNGLSHSWSERIPDTKHISDICENGRPRSNSWQGNLGGNKKKIRGKRFRPRSNSTETLSPAKSPSSSTGSIASSRKYPYPMPPLPDEDKKVNRQSARLWETSI

The text below walks through data of IntAct's records for PubMed 17141806.

The variants in the experiment derive from B1. To be noted: with hck_human HCK.
Turning to Y882A, the “effect of a mutation on the interaction” value is reported as “decreasing interaction”.
